# From PMC9482650, “Quantitative fragmentomics allow affinity mapping of interactomes” (Nature Communications, 2022)
# Molecular target: DLG4_2, P78352
# Test: holdup assay
# Set-up: key: below the threshold = too weak to quantify, mostly under pKd 3.1 to 4
# Details: plain residues with an end cap or a label only (N-terminal biotin on a linker: ado-ado)
# Chain of DLG4_2, P78352 (P78352 155-259): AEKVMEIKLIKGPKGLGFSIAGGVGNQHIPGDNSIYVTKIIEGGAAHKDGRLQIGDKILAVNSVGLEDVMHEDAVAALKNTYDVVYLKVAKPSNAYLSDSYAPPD
row,Binder,pKd
1,"PRISRSQSEL [CCDC134, Q9H6E4]",below the threshold
2,"QPCFNKLFPL [LPXN, O60711]",below the threshold

# Molecular target: GRASP, Q7Z6J2
# Test: holdup assay
# Set-up: key: below the threshold = too weak to quantify, mostly under pKd 3.1 to 4
# Details: plain residues with an end cap or a label only (N-terminal biotin on a linker: ado-ado)
# Chain of GRASP, Q7Z6J2 (Q7Z6J2 96-193): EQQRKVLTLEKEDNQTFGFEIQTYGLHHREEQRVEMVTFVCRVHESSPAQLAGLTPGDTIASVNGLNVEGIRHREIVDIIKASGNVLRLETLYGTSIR
row,Binder,pKd
1,"PRISRSQSEL [CCDC134, Q9H6E4]",4.31
2,"QPCFNKLFPL [LPXN, O60711]",below the threshold

# Molecular target: T1, MPP6, Q9NZW5
# T1 sequence (Q9NZW5 125-219, limits assumed, looked up): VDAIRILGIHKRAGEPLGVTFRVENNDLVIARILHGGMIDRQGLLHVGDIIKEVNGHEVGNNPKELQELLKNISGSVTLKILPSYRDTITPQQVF
# Test: holdup assay
# Set-up: key: below the threshold = too weak to quantify, mostly under pKd 3.1 to 4
# Details: plain residues with an end cap or a label only (N-terminal biotin on a linker: ado-ado)
row,Binder,pKd
1,"PRISRSQSEL [CCDC134, Q9H6E4]",below the threshold
2,"QPCFNKLFPL [LPXN, O60711]",below the threshold

# Molecular target: SCRIB_2, Q14160
# Test: holdup assay
# Set-up: key: below the threshold = too weak to quantify, mostly under pKd 3.1 to 4
# Details: plain residues with an end cap or a label only (N-terminal biotin on a linker: ado-ado)
# Chain of SCRIB_2, Q14160 (Q14160 857-960): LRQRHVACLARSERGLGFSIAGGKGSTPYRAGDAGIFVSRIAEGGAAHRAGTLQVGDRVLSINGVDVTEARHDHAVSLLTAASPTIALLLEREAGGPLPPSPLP
row,Binder,pKd
1,"PRISRSQSEL [CCDC134, Q9H6E4]",below the threshold
2,"QPCFNKLFPL [LPXN, O60711]",below the threshold

# Molecular target: IL16_1, Q14005
# Test: holdup assay
# Set-up: key: below the threshold = too weak to quantify, mostly under pKd 3.1 to 4
# Details: plain residues with an end cap or a label only (N-terminal biotin on a linker: ado-ado)
# Chain of IL16_1, Q14005 (Q14005 210-306): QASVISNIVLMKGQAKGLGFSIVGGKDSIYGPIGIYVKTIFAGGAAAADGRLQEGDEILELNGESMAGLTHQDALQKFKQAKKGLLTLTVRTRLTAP
row,Binder,pKd
1,"PRISRSQSEL [CCDC134, Q9H6E4]",below the threshold
2,"QPCFNKLFPL [LPXN, O60711]",below the threshold

# Molecular target: T2, RADIL, Q96JH8
# T2 sequence (Q96JH8 971-1071, limits assumed, looked up): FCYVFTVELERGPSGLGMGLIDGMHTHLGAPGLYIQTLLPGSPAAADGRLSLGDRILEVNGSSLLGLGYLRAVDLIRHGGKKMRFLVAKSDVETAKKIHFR
# Test: holdup assay
# Set-up: key: below the threshold = too weak to quantify, mostly under pKd 3.1 to 4
# Details: plain residues with an end cap or a label only (N-terminal biotin on a linker: ado-ado)
row,Binder,pKd
1,"PRISRSQSEL [CCDC134, Q9H6E4]",below the threshold
2,"QPCFNKLFPL [LPXN, O60711]",below the threshold

# Molecular target: T3, DLG3_1, Q92796
# T3 sequence (Q92796 125-227, limits assumed, looked up): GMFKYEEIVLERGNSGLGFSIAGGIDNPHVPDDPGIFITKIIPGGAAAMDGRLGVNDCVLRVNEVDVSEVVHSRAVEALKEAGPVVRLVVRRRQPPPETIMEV
# Test: holdup assay
# Set-up: key: below the threshold = too weak to quantify, mostly under pKd 3.1 to 4
# Details: plain residues with an end cap or a label only (N-terminal biotin on a linker: ado-ado)
row,Binder,pKd
1,"PRISRSQSEL [CCDC134, Q9H6E4]",below the threshold
2,"QPCFNKLFPL [LPXN, O60711]",below the threshold

# Molecular target: T4, DLG3_2, Q92796
# T4 sequence (Q92796 221-321, limits assumed, looked up): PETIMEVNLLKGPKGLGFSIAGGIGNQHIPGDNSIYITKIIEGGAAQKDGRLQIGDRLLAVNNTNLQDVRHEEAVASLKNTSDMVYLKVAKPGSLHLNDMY
# Test: holdup assay
# Set-up: key: below the threshold = too weak to quantify, mostly under pKd 3.1 to 4
# Details: plain residues with an end cap or a label only (N-terminal biotin on a linker: ado-ado)
row,Binder,pKd
1,"PRISRSQSEL [CCDC134, Q9H6E4]",3.98
2,"QPCFNKLFPL [LPXN, O60711]",below the threshold

# Molecular target: SCRIB_3, Q14160
# Test: holdup assay
# Set-up: key: below the threshold = too weak to quantify, mostly under pKd 3.1 to 4
# Details: plain residues with an end cap or a label only (N-terminal biotin on a linker: ado-ado)
# Chain of SCRIB_3, Q14160 (Q14160 999-1103): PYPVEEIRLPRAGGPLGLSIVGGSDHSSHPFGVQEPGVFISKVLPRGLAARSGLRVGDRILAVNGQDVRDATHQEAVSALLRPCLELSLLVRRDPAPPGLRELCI
row,Binder,pKd
1,"PRISRSQSEL [CCDC134, Q9H6E4]",4.06
2,"QPCFNKLFPL [LPXN, O60711]",below the threshold

# Molecular target: GOPC, Q9HD26
# Test: holdup assay
# Set-up: key: below the threshold = too weak to quantify, mostly under pKd 3.1 to 4
# Details: plain residues with an end cap or a label only (N-terminal biotin on a linker: ado-ado)
row,Binder,pKd
1,"PRISRSQSEL [CCDC134, Q9H6E4]",below the threshold
2,"QPCFNKLFPL [LPXN, O60711]",below the threshold

# Molecular target: MAGI2_2, Q86UL8
# Test: holdup assay
# Set-up: key: below the threshold = too weak to quantify, mostly under pKd 3.1 to 4
# Details: plain residues with an end cap or a label only (N-terminal biotin on a linker: ado-ado)
# Chain of MAGI2_2, Q86UL8 (Q86UL8 410-522): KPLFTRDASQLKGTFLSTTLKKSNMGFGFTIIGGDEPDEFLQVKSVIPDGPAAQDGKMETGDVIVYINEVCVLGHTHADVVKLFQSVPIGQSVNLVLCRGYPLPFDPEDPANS
row,Binder,pKd
1,"PRISRSQSEL [CCDC134, Q9H6E4]",3.85
2,"QPCFNKLFPL [LPXN, O60711]",below the threshold

# Molecular target: DLG1_1, Q12959
# Test: holdup assay
# Set-up: key: below the threshold = too weak to quantify, mostly under pKd 3.1 to 4
# Details: plain residues with an end cap or a label only (N-terminal biotin on a linker: ado-ado)
row,Binder,pKd
1,"PRISRSQSEL [CCDC134, Q9H6E4]",below the threshold
2,"QPCFNKLFPL [LPXN, O60711]",below the threshold

# Molecular target: LDB3, O75112
# Test: holdup assay
# Set-up: key: below the threshold = too weak to quantify, mostly under pKd 3.1 to 4
# Details: plain residues with an end cap or a label only (N-terminal biotin on a linker: ado-ado)
# Chain of LDB3, O75112 (O75112 1-94): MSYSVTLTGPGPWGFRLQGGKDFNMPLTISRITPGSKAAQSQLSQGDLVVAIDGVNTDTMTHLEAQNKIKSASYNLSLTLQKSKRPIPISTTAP
row,Binder,pKd
1,"PRISRSQSEL [CCDC134, Q9H6E4]",below the threshold
2,"QPCFNKLFPL [LPXN, O60711]",below the threshold

# Molecular target: T5, ARHGEF11, O15085
# T5 sequence (O15085 42-136, limits assumed, looked up): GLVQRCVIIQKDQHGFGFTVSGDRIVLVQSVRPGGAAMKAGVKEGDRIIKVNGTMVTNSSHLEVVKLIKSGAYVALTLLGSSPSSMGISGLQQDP
# Test: holdup assay
# Set-up: key: below the threshold = too weak to quantify, mostly under pKd 3.1 to 4
# Details: plain residues with an end cap or a label only (N-terminal biotin on a linker: ado-ado)
row,Binder,pKd
1,"PRISRSQSEL [CCDC134, Q9H6E4]",3.88
2,"QPCFNKLFPL [LPXN, O60711]",below the threshold

# Molecular target: FRMPD3, Q5JV73
# Test: holdup assay
# Set-up: key: below the threshold = too weak to quantify, mostly under pKd 3.1 to 4
# Details: plain residues with an end cap or a label only (N-terminal biotin on a linker: ado-ado)
# Chain of FRMPD3, Q5JV73 (Q5JV73 12-100): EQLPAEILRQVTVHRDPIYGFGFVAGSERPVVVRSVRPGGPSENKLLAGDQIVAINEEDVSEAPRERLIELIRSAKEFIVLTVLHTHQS
row,Binder,pKd
1,"PRISRSQSEL [CCDC134, Q9H6E4]",below the threshold
2,"QPCFNKLFPL [LPXN, O60711]",below the threshold

# Molecular target: DLG4_3, P78352
# Test: holdup assay
# Set-up: key: below the threshold = too weak to quantify, mostly under pKd 3.1 to 4
# Details: plain residues with an end cap or a label only (N-terminal biotin on a linker: ado-ado)
# Chain of DLG4_3, P78352 (P78352 306-403): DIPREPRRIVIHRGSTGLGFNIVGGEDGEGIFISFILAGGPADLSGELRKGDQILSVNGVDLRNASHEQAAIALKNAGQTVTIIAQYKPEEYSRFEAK
row,Binder,pKd
1,"PRISRSQSEL [CCDC134, Q9H6E4]",below the threshold
2,"QPCFNKLFPL [LPXN, O60711]",below the threshold

# Molecular target: MAGI3_2, Q5TCQ9
# Test: holdup assay
# Set-up: key: below the threshold = too weak to quantify, mostly under pKd 3.1 to 4
# Details: plain residues with an end cap or a label only (N-terminal biotin on a linker: ado-ado)
# Chain of MAGI3_2, Q5TCQ9 (Q5TCQ9 398-503): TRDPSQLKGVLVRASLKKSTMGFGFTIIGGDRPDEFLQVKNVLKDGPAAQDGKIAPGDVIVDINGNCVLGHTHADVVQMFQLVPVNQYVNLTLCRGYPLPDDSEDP
row,Binder,pKd
1,"PRISRSQSEL [CCDC134, Q9H6E4]",4.25
2,"QPCFNKLFPL [LPXN, O60711]",below the threshold

# Molecular target: DLG1_3, Q12959
# Test: holdup assay
# Set-up: key: below the threshold = too weak to quantify, mostly under pKd 3.1 to 4
# Details: plain residues with an end cap or a label only (N-terminal biotin on a linker: ado-ado)
row,Binder,pKd
1,"PRISRSQSEL [CCDC134, Q9H6E4]",below the threshold
2,"QPCFNKLFPL [LPXN, O60711]",below the threshold

# Molecular target: TJP1_2, Q07157
# Test: holdup assay
# Set-up: key: below the threshold = too weak to quantify, mostly under pKd 3.1 to 4
# Details: plain residues with an end cap or a label only (N-terminal biotin on a linker: ado-ado)
# Chain of TJP1_2, Q07157 (Q07157 181-274): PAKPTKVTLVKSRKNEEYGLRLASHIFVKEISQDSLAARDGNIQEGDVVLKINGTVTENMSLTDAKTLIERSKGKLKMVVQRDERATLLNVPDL
row,Binder,pKd
1,"PRISRSQSEL [CCDC134, Q9H6E4]",below the threshold
2,"QPCFNKLFPL [LPXN, O60711]",below the threshold

# Molecular target: AHNAK1, Q09666
# Test: holdup assay
# Set-up: key: below the threshold = too weak to quantify, mostly under pKd 3.1 to 4
# Details: plain residues with an end cap or a label only (N-terminal biotin on a linker: ado-ado)
# Chain of AHNAK1, Q09666 (Q09666 4-100): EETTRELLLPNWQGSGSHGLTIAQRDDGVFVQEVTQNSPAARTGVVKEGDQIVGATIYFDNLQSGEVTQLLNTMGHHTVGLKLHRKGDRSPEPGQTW
row,Binder,pKd
1,"PRISRSQSEL [CCDC134, Q9H6E4]",below the threshold
2,"QPCFNKLFPL [LPXN, O60711]",below the threshold

# Molecular target: GORASP2, Q9H8Y8
# Test: holdup assay
# Set-up: key: below the threshold = too weak to quantify, mostly under pKd 3.1 to 4
# Details: plain residues with an end cap or a label only (N-terminal biotin on a linker: ado-ado)
row,Binder,pKd
1,"PRISRSQSEL [CCDC134, Q9H6E4]",below the threshold
2,"QPCFNKLFPL [LPXN, O60711]",4

# Molecular target: PDLIM1, O00151
# Test: holdup assay
# Set-up: key: below the threshold = too weak to quantify, mostly under pKd 3.1 to 4
# Details: plain residues with an end cap or a label only (N-terminal biotin on a linker: ado-ado)
# Chain of PDLIM1, O00151 (O00151 1-87): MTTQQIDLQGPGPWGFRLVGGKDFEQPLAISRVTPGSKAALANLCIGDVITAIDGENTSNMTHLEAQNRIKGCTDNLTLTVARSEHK
row,Binder,pKd
1,"PRISRSQSEL [CCDC134, Q9H6E4]",below the threshold
2,"QPCFNKLFPL [LPXN, O60711]",below the threshold

# Molecular target: T6, LIN7A, O14910
# T6 sequence (O14910 103-200, limits assumed, looked up): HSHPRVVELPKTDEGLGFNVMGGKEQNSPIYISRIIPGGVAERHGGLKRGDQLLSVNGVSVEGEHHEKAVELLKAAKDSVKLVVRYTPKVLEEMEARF
# Test: holdup assay
# Set-up: key: below the threshold = too weak to quantify, mostly under pKd 3.1 to 4
# Details: plain residues with an end cap or a label only (N-terminal biotin on a linker: ado-ado)
row,Binder,pKd
1,"PRISRSQSEL [CCDC134, Q9H6E4]",3.52
2,"QPCFNKLFPL [LPXN, O60711]",below the threshold

# Molecular target: T7, GRIP1_5, Q9Y3R0
# T7 sequence (Q9Y3R0 568-668, limits assumed, looked up): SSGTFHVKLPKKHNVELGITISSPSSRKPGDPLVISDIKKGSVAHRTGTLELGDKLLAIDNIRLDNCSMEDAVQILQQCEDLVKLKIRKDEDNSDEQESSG
# Test: holdup assay
# Set-up: key: below the threshold = too weak to quantify, mostly under pKd 3.1 to 4
# Details: plain residues with an end cap or a label only (N-terminal biotin on a linker: ado-ado)
row,Binder,pKd
1,"PRISRSQSEL [CCDC134, Q9H6E4]",below the threshold
2,"QPCFNKLFPL [LPXN, O60711]",below the threshold

# Molecular target: T8, SHANK1, Q9Y566
# T8 sequence (Q9Y566 658-767, limits assumed, looked up): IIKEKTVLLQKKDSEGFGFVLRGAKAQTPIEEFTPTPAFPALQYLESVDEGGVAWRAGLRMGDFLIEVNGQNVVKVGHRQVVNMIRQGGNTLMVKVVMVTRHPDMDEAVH
# Test: holdup assay
# Set-up: key: below the threshold = too weak to quantify, mostly under pKd 3.1 to 4
# Details: plain residues with an end cap or a label only (N-terminal biotin on a linker: ado-ado)
row,Binder,pKd
1,"PRISRSQSEL [CCDC134, Q9H6E4]",below the threshold
2,"QPCFNKLFPL [LPXN, O60711]",below the threshold

# Molecular target: MAGI1_2, Q96QZ7
# Test: holdup assay
# Set-up: key: below the threshold = too weak to quantify, mostly under pKd 3.1 to 4
# Details: plain residues with an end cap or a label only (N-terminal biotin on a linker: ado-ado)
# Chain of MAGI1_2, Q96QZ7 (Q96QZ7 456-580): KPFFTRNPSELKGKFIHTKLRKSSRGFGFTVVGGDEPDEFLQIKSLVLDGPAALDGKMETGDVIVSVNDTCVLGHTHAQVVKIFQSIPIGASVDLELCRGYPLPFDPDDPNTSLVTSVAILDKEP
row,Binder,pKd
1,"PRISRSQSEL [CCDC134, Q9H6E4]",4.13
2,"QPCFNKLFPL [LPXN, O60711]",below the threshold

# Molecular target: T9, SIPA1L2, Q9P2F8
# T9 sequence (Q9P2F8 945-1036, limits assumed, looked up): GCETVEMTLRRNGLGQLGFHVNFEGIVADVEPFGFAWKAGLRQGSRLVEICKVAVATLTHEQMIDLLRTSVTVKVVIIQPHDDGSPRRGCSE
# Test: holdup assay
# Set-up: key: below the threshold = too weak to quantify, mostly under pKd 3.1 to 4
# Details: plain residues with an end cap or a label only (N-terminal biotin on a linker: ado-ado)
row,Binder,pKd
1,"PRISRSQSEL [CCDC134, Q9H6E4]",below the threshold
2,"QPCFNKLFPL [LPXN, O60711]",below the threshold

# Molecular target: TJP2_1, Q9UDY2
# Test: holdup assay
# Set-up: key: below the threshold = too weak to quantify, mostly under pKd 3.1 to 4
# Details: plain residues with an end cap or a label only (N-terminal biotin on a linker: ado-ado)
# Chain of TJP2_1, Q9UDY2 (Q9UDY2 24-128): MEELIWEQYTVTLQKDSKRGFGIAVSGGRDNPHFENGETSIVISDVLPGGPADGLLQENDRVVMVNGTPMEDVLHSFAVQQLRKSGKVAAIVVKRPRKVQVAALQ
row,Binder,pKd
1,"PRISRSQSEL [CCDC134, Q9H6E4]",below the threshold
2,"QPCFNKLFPL [LPXN, O60711]",below the threshold
